Measurements published in patent US10022453B2 (BAYER PHARMA AKTIENGESELLSCHAFT, priority 2013, dated 2018).
Substitutions are numbered along the chain they refer to.

B1: P3G5(TPP-2195): comparative anti-TWEAKR antibody; variable domains from WO2009/140177, constant region added, "resulting in full-length IgGs" (protein)
light: DIVLTQSPASLAVSLGQRATISCRANKSVSTSSYSYMHWYQQKPGQPPKLLIKYASNLESGVPARFSGSGSGTDFILNIHPVEEEDAATYYCQHSRELPFTFGSGTKLEIKRADAAPTVSIFPPSSEQLTSGGASVVCFLNNFYPKDINVKWKIDGSERQNGVLNSWTDQDSKDSTYSMSSTLTLTKDEYERHNSYTCEATHKTSTSPIVKSFNRNEC
heavy: QVQLQQSGPEVVRPGVSVKISCKGSGYTFTDYGIHWVKQSHAKSLEWIGVISTYNGYTNYNQKFKGKATMTVDKSSSTAYMELARLTSEDSAIYYCARAYYGNLYYAMDYWGQGTSVTVSSAKTTAPSVYPLAPVCGDTTGSSVTLGCLVKGYFPEPVTLTWNSGSLSSGVHTFPAVLQSDLYTLSSSVTVTSSTWPSQSITCNVAHPASSTKVDKKIEPRGPTIKPCPPCKCPAPNLLGGPSVFIFPPKIKDVLMISLSPIVTCVVVDVSEDDPDVQISWFVNNVEVHTAQTQTHREDYNSTLRVVSALPIQHQDWMSGKEFKCKVNNKDLPAPIERTISKPKGSVRAPQVYVLPPPEEEMTKKQVTLTCMVTDFMPEDIYVEWTNNGKTELNYKNTEPVLDSDGSYFMYSKLRVEKKNWVERNSYSCSVVHEGLHNHHTTKSFSRTPG
modifications: Mus Musculus
B2: 18.3.3(TPP-2193): comparative anti-TWEAKR antibody; variable domains from WO2009/020933, constant region added, "resulting in full-length IgGs" (protein)
light: DIVLTQSPASLAVSLGQRATISCKASQSVSTSTYSYMQWYQQRPGQSPKLLIKYASKLDSGVPARFSGSGSGTDFTLNIHPVEEEDTATYYCQHSWELPYTFGGGTRLEIKRADAAPTVSIFPPSSEQLTSGGASVVCFLNNFYPKDINVKWKIDGSERQNGVLNSWTDQDSKDSTYSMSSTLTLTKDEYERHNSYTCEATHKTSTSPIVKSFNRNEC
heavy: EVKLGESGGGLVQPGGSMKLSCVASGFPFTKYWMNWVRQSPEKGLEWVAEIRLKSDNYATHYAESAKGRFTISRDDSRSSVYLQMNNLRAEDTAIYYCSPTYADTMDYWGQGTSVTVSSAKTTAPSVYPLAPVCGDTTGSSVTLGCLVKGYFPEPVTLTWNSGSLSSGVHTFPAVLQSDLYTLSSSVTVTSSTWPSQSITCNVAHPASSTKVDKKIEPRGPTIKPCPPCKCPAPNLLGGPSVFIFPPKIKDVLMISLSPIVTCVVVDVSEDDPDVQISWFVNNVEVHTAQTQTHREDYNSTLRVVSALPIQHQDWMSGKEFKCKVNNKDLPAPIERTISKPKGSVRAPQVYVLPPPEEEMTKKQVTLTCMVTDFMPEDIYVEWTNNGKTELNYKNTEPVLDSDGSYFMYSKLRVEKKNWVERNSYSCSVVHEGLHNHHTTKSFSRTPG
modifications: Mus Musculus
B3: 136.1: "agonistic antibodies already described [e.g. PDL-192(TPP-1104), P4A8(TPP-1324), 136.1(TPP-2194)]" (protein)
light: B2 light with A12T, K24R, T33S, S47P, S56T, K57N, T87A, L98I, R107K
heavy: EVKLEESGGGLVQPGGSMKLSCVASGFTFNNYWMSWVRQSPEKGLEWLAEIRLKSDNYATHYAESVKGKFTISRDDSKSRLYLQMNNLRAENTGIYYCTGGFADYFDYWGQGTTLTVSSAKTTAPSVYPLAPVCGDTTGSSVTLGCLVKGYFPEPVTLTWNSGSLSSGVHTFPAVLQSDLYTLSSSVTVTSSTWPSQSITCNVAHPASSTKVDKKIEPRGPTIKPCPPCKCPAPNLLGGPSVFIFPPKIKDVLMISLSPIVTCVVVDVSEDDPDVQISWFVNNVEVHTAQTQTHREDYNSTLRVVSALPIQHQDWMSGKEFKCKVNNKDLPAPIERTISKPKGSVRAPQVYVLPPPEEEMTKKQVTLTCMVTDFMPEDIYVEWTNNGKTELNYKNTEPVLDSDGSYFMYSKLRVEKKNWVERNSYSCSVVHEGLHNHHTTKSFSRTPG
modifications: Mus Musculus
B4: 136.1(TPP-2194): comparative anti-TWEAKR antibody; variable domains from WO2009/020933, constant region added, "resulting in full-length IgGs" (protein)
light: B2 light with A12T, K24R, T33S, S47P, S56T, K57N, T87A, L98I, R107K
heavy: B3 heavy
modifications: Mus Musculus

How the values were obtained:
Caco-2 cells = assay: Cell permeability, flux assay using Caco-2 cells
[1] = target: T1, recombinant human TWEAKR protein (TPP-2305) (Homo sapiens, UniProt Q9NP84); assay: Binding affinities by Biacore analysis; conditions: monovalent
T1 construct: purchased Fitzgerald Inc 30R-AT080
Experimental: Determination of Binding Affinities by Biacore Analysis:
Binding affinities of anti-TWEAKR antibodies were examined using surface plasmon resonance analysis on a Biacore T100 instrument (GE Healthcare Biacore, Inc.). The antibodies were immobilized on a CM5 sensor chip using an indirect capture reagent, anti-human IgG(Fc). […] Anti-TWEAKR antibodies were injected at a concentration of 10 μg/ml at […] for 10 sec.
Sensorgrams were generated after in-line reference cell correction, followed by subtraction of the buffer sample. The dissociation constant (KD) was calculated based on the ratio of association (kon) and dissociation (koff) constants, obtained by fitting sensorgrams using a 1:1 first order binding model.

TWEAKR-Fc mutein H60K = target: T2, TWEAKR-Fc mutein H60K (Homo sapiens, UniProt Q9NP84, H60K); assay: ELISA, effect of TWEAKR-Fc muteins on antibody binding; conditions: 62 ng/ml mutein coated, biotinylated IgG from 100 nM
T2 construct: the full-length ectodomain (amino acids 28-80); made in house
Experimental: (§1) Effect of TWEAKR-Fc Muteins on the Antibody Affinity
(§2) To this end, the full-length ectodomain (amino acids 28-80) having the individual amino acid substitutions below were expressed and purified as Fc fusion proteins: T33Q; S40R; W42A; M50A; R56P; H60K; L65Q.
(§3) Detection was carried out using streptavidin-HRP and Amplex Red.
(§4) The dose-reaction data were fitted and the IC50s were determined.

TWEAKR-Fc mutein R56P = target: T3, TWEAKR-Fc mutein R56P (Homo sapiens, UniProt Q9NP84, R56P); assay: as above; conditions: 62 ng/ml mutein coated, biotinylated IgG from 100 nM
T3 construct: the full-length ectodomain (amino acids 28-80); made in house
Experimental: as §1, §2, §3, §4

TWEAKR-Fc mutein L65Q = target: T4, TWEAKR-Fc mutein L65Q (Homo sapiens, UniProt Q9NP84, L65Q); assay: as above; conditions: 62 ng/ml mutein coated, biotinylated IgG from 100 nM
T4 construct: the full-length ectodomain (amino acids 28-80); made in house
Experimental: as §1, §2, §3, §4

TWEAKR-Fc mutein W42A = target: T5, TWEAKR-Fc mutein W42A (Homo sapiens, UniProt Q9NP84, W42A); assay: as above; conditions: 62 ng/ml mutein coated, biotinylated IgG from 100 nM
T5 construct: the full-length ectodomain (amino acids 28-80); made in house
Experimental: as §1, §2, §3, §4

TWEAKR-Fc mutein M50A = target: T6, TWEAKR-Fc mutein M50A (Homo sapiens, UniProt Q9NP84, M50A); assay: as above; conditions: 62 ng/ml mutein coated, biotinylated IgG from 100 nM
T6 construct: the full-length ectodomain (amino acids 28-80); made in house
Experimental: as §1, §2, §3, §4

TWEAKR-Fc mutein T33Q = target: T7, TWEAKR-Fc mutein T33Q (Homo sapiens, UniProt Q9NP84, T33Q); assay: as above; conditions: 62 ng/ml mutein coated, biotinylated IgG from 100 nM
T7 construct: the full-length ectodomain (amino acids 28-80); made in house
Experimental: as §1, §2, §3, §4

TWEAKR-Fc mutein S40R = target: T8, TWEAKR-Fc mutein S40R (Homo sapiens, UniProt Q9NP84, S40R); assay: as above; conditions: 62 ng/ml mutein coated, biotinylated IgG from 100 nM
T8 construct: the full-length ectodomain (amino acids 28-80); made in house
Experimental: as §1, §2, §3, §4

TWEAKR-Fc WT (TPP-599) = target: T9, TWEAKR-Fc WT (TPP-599) (Homo sapiens, UniProt Q9NP84); assay: as above; conditions: 62 ng/ml TWEAKR-Fc coated, biotinylated IgG from 100 nM
T9 construct: hTNFRSF12 amino acids a28-80-hIgG1-Fc
Experimental: as §1, §2, §3, §4

[2] = target: T1, recombinant human TWEAKR protein (TPP-2305); conditions: published data (WO2009/020933, WO2009/140177, literature); cited from earlier work

Molecule | Papp (B-A) (Caco-2 cells; Caco-2, 2 hours) | Efflux ratio (Caco-2 cells; Papp (B-A) to Papp (A-B), Caco-2) | ka [1] | kd [1] | IC50 (TWEAKR-Fc mutein H60K) | IC50 (TWEAKR-Fc mutein R56P) | IC50 (TWEAKR-Fc mutein L65Q) | IC50 (TWEAKR-Fc mutein W42A) | IC50 (TWEAKR-Fc mutein M50A) | IC50 (TWEAKR-Fc mutein T33Q) | IC50 (TWEAKR-Fc mutein S40R) | IC50 (TWEAKR-Fc WT (TPP-599)) | Kd [2]
CC(C)(C)[C@H](c1nn(-c2cc(F)ccc2F)cc1Cc1ccccc1)N(CC[C@H](N)C(=O)NCCC(=O)NCCN1C(=O)CC(SC[C@H](N)C(=O)O)C1=O)C(=O)CO.O=C(O)C(F)(F)F (stereo partly shown) [Example 92] | 0.4 ×10⁻⁶ cm/s | 3 |  |  |  |  |  |  |  |  |  |  | 
B1 |  |  | 2.31e+06 M⁻¹ s⁻¹ | 0.00122 s⁻¹ | 0.001 to 0.15 nM | 0.001 to 0.15 nM | 0.001 to 0.15 nM | > 50 nM | 0.001 to 0.15 nM | 0.001 to 0.15 nM | 0.001 to 0.15 nM | 0.001 to 0.15 nM | 
B2 |  |  | 1.64e+07 M⁻¹ s⁻¹ | 0.0285 s⁻¹ | 0.001 to 0.15 nM | > 50 nM | 0.001 to 0.15 nM | > 50 nM | 0.001 to 0.15 nM | 0.001 to 0.15 nM | 0.001 to 0.15 nM | 0.001 to 0.15 nM | 0.2 nM
B3 |  |  |  |  |  |  |  |  |  |  |  |  | 0.7 nM
B4 |  |  | 3.84e+07 M⁻¹ s⁻¹ | 0.0324 s⁻¹ | 0.001 to 0.15 nM | > 50 nM | 0.001 to 0.15 nM | > 50 nM | 0.001 to 0.15 nM | 0.001 to 0.15 nM | 0.001 to 0.15 nM | 0.001 to 0.15 nM | 
